# Residue numbers refer to the chain shown, from its start.
# T1: KGF (hKGF) (Homo sapiens, UniProt P21781 P21781:32-194)
# T1 sequence: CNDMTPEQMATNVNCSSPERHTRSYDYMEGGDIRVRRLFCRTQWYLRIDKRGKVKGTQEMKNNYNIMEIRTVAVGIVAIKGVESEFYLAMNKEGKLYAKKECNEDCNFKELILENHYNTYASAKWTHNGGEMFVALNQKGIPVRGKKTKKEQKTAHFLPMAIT
# B1: 42N (ssRNA)
# RNA: GGGAGGACGAUGCGGGGAGACGUAGACGGGAACAUAGAACGAACAUCAACGCGGCCAGACGACUCGCCCGA
# modifications: 2'-NH2 pyrimidines
# B2: 27F (ssRNA)
# RNA: GGGAGGACGAUGCGGCAGUCUGGAUCUCUAUUGGAAUUUAGUCCUCAACUGUGCCCCAGACGACUCGCCCGA
# modifications: 2'-F pyrimidines
# B3: 37F (ssRNA)
# RNA: GGGAGGACGAUGCGGGCCCGAUCUACUGCAUUACCGAAACGAUUUCCCCACUGUGCAGACGACUCGCCCGA
# modifications: 2'-F pyrimidines
# B4: 43N (ssRNA)
# RNA: GGGAGGACGAUGCGGGAAGUGGAUAGAACAGUCAGAAAUGUAAGCGUGAGGUGCAGACGACUCGCCCGA
# modifications: 2'-NH2 pyrimidines
# B5: 42F (ssRNA)
# RNA: GGGAGGACGAUGCGGCGACACAAUAGCCUUUGAUCCCAUGAUGGCUCGCCGUGCCCAGACGACUCGCCCGA
# modifications: 2'-F pyrimidines
# B6: 45F (ssRNA)
# RNA: GGGAGGACGAUGCGGGUCGUAUUCAUCUCCUUGUUCUGUUUCGUUGCACCUGGCCCAGACGACUCGCCCGA
# modifications: 2'-F pyrimidines
# B7: 29F (ssRNA)
# RNA: GGGAGGACGAUGCGGGGACUUCAACUAAGUCCUCAUUUGCCUCGCUCCUCGUGCCCAGACGACUCGCCCGA
# modifications: 2'-F pyrimidines
# B8: 29N (ssRNA)
# RNA: GGGAGGACGAUGCGGGAGGGGAGAAGAAUGCAGGAAACAGCGAAAUGCGUGUGGCCAGACGACUCGCCCGA
# modifications: 2'-NH2 pyrimidines
# B9: 35F (ssRNA)
# RNA: GGGAGGACGAUGCGGCGAAAUUAGCUUCUUAUGACUCACGUUUCCUUGCCGCCCCAGACGACUCGCCCGA
# modifications: 2'-F pyrimidines
# B10: 10F (ssRNA)
# RNA: GGGAGGACGAUGCGGGACCAGAUGGCGGAUUUUUCAGCAAUCCUCCCCCGCUGCCCAGACGACUCGCCCGA
# modifications: 2'-F pyrimidines
# B11: 41F (ssRNA)
# RNA: GGGAGGACGAUGCGGGGACUUUGACAGGCAUUGAUUUCGACCUGUUCCCCGUGGCCAGACGACUCGCCCGA
# modifications: 2'-F pyrimidines
# B12: 49F (ssRNA)
# RNA: B11 RNA with C42G
# modifications: 2'-F pyrimidines
# B13: 1N (ssRNA)
# RNA: GGGAGGACGAUGCGGGAAGGGACGAUAAAGAGGAAUCGAACAACAAGUGGCUGGCCAGACGACUCGCCCGA
# modifications: 2'-NH2 pyrimidines
# B14: 6N (ssRNA)
# RNA: GGGAGGACGAUGCGGGCAGGGAGCAAUGAACUCAAGUCAAGCCGGUGCACGUGGGCAGACGACUCGCCCGA
# modifications: 2'-NH2 pyrimidines
# B15: 2N (ssRNA)
# RNA: GGGAGGACGAUGCGGGCGGGAAGGUCCGAAGACCGGCGAAAGGAACGAGAUUGCCCAGACGACUCGCCCGA
# modifications: 2'-NH2 pyrimidines
# Target: T1, KGF (hKGF)
# Test: filter; DPBS, 37 C
# Conditions: tags: Upstate Biotechnology; label: 32P
row,Binder,Kd [nM]
1,B1,0.78
2,B2,1.52
3,B3,0.46
4,B4,0.79
5,B5,0.9
6,B6,4.7
7,B7,3.24
8,B8,0.43
9,B9,1.1
10,B10,0.47
11,B11,1.44
12,B12,1
13,B13,0.51
14,B14,0.71

# Same assay, conditions: tags: Upstate Biotechnology; label: 32P; dumbbell (predicted)
row,Binder,Kd [nM]
1,B15,0.77

# Target: T1, KGF (hKGF)
# Test: filter; high -, low -
# Conditions: tags: Upstate Biotechnology
# Procedure: In an effort to identify shorter KGF ligands that retained binding, the binding activity of various deletions of the shortest truncate of ligand 14F, namely 14F3′T were tested. Deletions were tested in all the structural elements of the proposed pseudoknot structure. RNA transcripts containing 2′F pyrimidines and 2′OH purines were obtained by in vitro transcription using synthetic DNA templates. The activity of each ligand is shown by scoring for both the high (H) and low (L) affinity component of the 14F3′T binding curve with +(active) or −(not active). Truncates T35 and T36 represent two complementary halves of 14F3′T molecule and were additionally tested as an equimolar mixture. The structural elements of the proposed pseudoknot structure are separated by (1) and are indicated by symbols S1 (stem 1), S2 (stem 2), L1 (loop 1) and L3 (loop 3). The proposed pseudoknot structure for 14F3′T is a non-H-type pseudoknot and lacks L2 (loop 2). The complementary sequences forming S1 (S1 and S1′) and S2 (S2 and S2′) are marked by single and double underlines respectfully. In the tabulated sequences, deleted bases were replaced with periods (.). […] Deletions in loop 3 (L3), however, were tolerated as long as one copy of the RRYY box remained intact. The shortest ligand that retained activity is T22 which is a 43-mer. In trying to obtain shorter ligands by truncating L3 further a mutant version of T22 (designated T22mu) was used where the last GC base pair of S1 was eliminated by a G to U mutation at position 6. The reasoning for this mutation was to enhance the flexibility of the double stranded region of this ligand by allowing an unpaired base between S1 and S2.
row,Binder,binding result
1,"GAUGCGGUGGUCUCCCAAUUCUAUUCUCCAUCGUAUC (ssRNA, 2'-F pyrimidines) [T34]",no binding
2,"GGGAGGACGAUG (ssRNA, 2'-F pyrimidines) [T36]",no binding
3,"GGGAGGACUGCGGUGGUCUCCCAAUUCUAAACUUUCUCCAUCGUA (ssRNA, 2'-F pyrimidines) [T3]",no binding
4,"GGGAGGACGAUGCGGUGGUCUCCCAAUUAACUCCAUCGUAUC (ssRNA, 2'-F pyrimidines) [T7]",no binding
5,"GGGAGGACGAUGCGGUGGUCUCCCAAUUCUAUCCAUCGUAUC (ssRNA, 2'-F pyrimidines) [T20]",no binding
6,"GGGAGGACGAUGCGGUGGUCUCCCAAUUCUCUCCAUCGUAUC (ssRNA, 2'-F pyrimidines) [T37]",no binding
7,"GGGAGGACGAUGCGGUGGUCUCCCAAUUUUCUCCAUCGUAUC (ssRNA, 2'-F pyrimidines) [T10]",no binding
8,"GGAGGACGAUGCGGUGGUCUCCCAAUUCUAUUCUCCAUCGUAUC (ssRNA, 2'-F pyrimidines) [T12]",no binding
9,"GGAGGACGAUGCGGUGGUCUCCAAUUCUAUUCUCCAUCGUAUC (ssRNA, 2'-F pyrimidines) [T13]",no binding
10,"GGGAGGACGAUGCGGUGUCUCCCAAUUCUUCUCAUCGUAUC (ssRNA, 2'-F pyrimidines) [T39 (KGF truncate)]",no binding
11,"GGGAGGACGAUGCGGGGUCUCCCAAUUCUUCUCCUCGUAUC (ssRNA, 2'-F pyrimidines) [T40]",no binding
12,"GGUGGUCUCCCAAUUCUAUUCUCCAUCGUAUC (ssRNA, 2'-F pyrimidines) [T35]",no binding
13,"GGACGAUGCGGUGGCCCAAUUCUAUUCUCCAUCGUAUC (ssRNA, 2'-F pyrimidines) [T32]",no binding
14,"GACGAUGCGGUGGCCCAAUUCUAUUCUCCAUCGUAUC (ssRNA, 2'-F pyrimidines) [T31]",no binding
15,"GAGGACGAUGCGGUGGUCUCAAUUCUAUUCUCCAUCGUAUC (ssRNA, 2'-F pyrimidines) [T15]",no binding
16,"GGGGACGAUGCGGUGGCCCCAAUUCUAUUCUCCAUCGUAUC (ssRNA, 2'-F pyrimidines) [T29]",no binding
17,"GGGAGGACGAUGCGGUGGUCUCCCAAUUCUACCAUCGUAUC (ssRNA, 2'-F pyrimidines) [T11]",no binding
18,"GGGAGGACGAUGCGGGUCUCCCAAUUCUUCUCUCGUAUC (ssRNA, 2'-F pyrimidines) [T41]",no binding
19,"GGGAGGACGAUGCGGUGGUCUCCCAAUUCUACUCCAUCGUAUC (ssRNA, 2'-F pyrimidines) [T19]",no binding
20,"GGGACGAUGCGGUGGCCCAAUUCUAUUCUCCAUCGUAUC (ssRNA, 2'-F pyrimidines) [T30]",no binding
21,"GAUGCGGUGGCCCAAUUCUAUUCUCCAUCGUAUC (ssRNA, 2'-F pyrimidines) [T33]",no binding
22,"GAGGACGAUGCGGUGGUCUCCCAAUUCUAUUCUCCAUCGUAUC (ssRNA, 2'-F pyrimidines) [T14]",no binding

# Target: T1, KGF (hKGF)
# Test: competition; PC-3 cells
# Conditions: tags: Upstate Biotechnology
# Procedure: PC-3 cells were plated in 24-well plates at about 10⁵ cells per well. Following growth for […], the cells were serum starved for 24 hours, washed two times with 500 μl of cold DPBS, and then incubated with 500 μl binding buffer (BB1; DPBS, 0.5 mM MgCl₂, 0.2% BSA. 0.02% sodium azide) containing various concentrations of ¹²⁵I-labeled KGF ranging from 0 to 0.8 nM. Following 3-3.5 hour incubation at 4° C., the binding mixes were aspirated and the well-adhered cells were washed two times with 1 ml BB1 and once with 1 ml BB1 supplemented with 0.5M NaCl. The remaining bound labeled hKGF was solubilized in 600 μl 0.5% SDS/0.1M NaOH and counted in a gamma counter (Beckmann). Nonspecific binding was determined in the presence of 100 fold molar excess of unlabeled hKGF. For competition assays, the labeled hKGF was kept constant at […], and varying concentrations of competitor molecules were included in the binding reactions ranging from 0-1,000 nM. Binding curves were fitted to the equation: […]
# A subset of these ligands was tested on the NIH3T3/FGFR-2. In determining the Ki values, it was assumed that 3T3 cells have 500,000 binding sites per cell and PC-3 cells have 5,000 binding sites per cell.
row,Binder,IC50 [nM]
1,B1,800
2,B3,20
3,B4,800
4,B8,40
5,B10,30
6,B13,50
7,B14,80
8,B15,200

# — patent US20030180744, “High affinity oligonucleotide ligands to growth factors” (GILEAD SCIENCES, INC., published 2003)
